Source: patent US20120207760A1

Experiments:
Conditions in all cases: remark: other sources report otherwise
[1] = molecular target: T1, recombinant homotrimeric HA, A/Japan/305/57 H2N2 (Influenza A virus A/Japan/305/57 (H2N2)); test: trimeric HA microarray, transfection set 5
[2] = molecular target: T2, recombinant homotrimeric HA, A/Vietnam/1203/04 H5N1 (Influenza A virus A/Vietnam/1203/04 (H5N1)); test: trimeric HA microarray, transfection set 5
[3] = molecular target: T3, recombinant homotrimeric HA, A/Solomon Islands/3/06 H1N1 (Influenza A virus A/Solomon Islands/3/06 (H1N1)); test: trimeric HA microarray, transfection set 5
[4] = molecular target: T4, recombinant homotrimeric HA, A/South Carolina/1/18 H1N1 (Influenza A virus A/South Carolina/1/18 (H1N1)); test: trimeric HA microarray, transfection set 5
[5] = molecular target: T5, recombinant homotrimeric HA, A/California/4/09 H1N1 (Influenza A virus A/California/4/09 (H1N1)); test: trimeric HA microarray, transfection set 5
[6] = molecular target: T6, recombinant homotrimeric HA, A/Wisconsin/67/05 H3N2 (Influenza A virus A/Wisconsin/67/05 (H3N2)); test: trimeric HA microarray, transfection set 5
[7] = molecular target: recombinant soluble homotrimeric HA of A/chicken/Vietnam/NCVD-016/08 (H5N1) (Influenza A virus A/chicken/Vietnam/NCVD-016/08 (H5N1)); test: microarray, BCC supernatant IgG, trimeric HA
[8] = molecular target: recombinant soluble homotrimeric HA of A/northern shoveler/California/HKWF115/07 (Influenza A virus A/northern shoveler/California/HKWF115/2007); test: microarray, BCC supernatant IgG, trimeric HA
[9] = molecular target: hemagglutinin (HA) of influenza A/Japan/305/57 H2N2 (Influenza A virus A/Japan/305/1957 (H2N2)), P03451; test: ELISA, inactivated whole virions coated; transfection supernatant set 5
[10] = molecular target: T7, recombinant homotrimeric HA, A/Indonesia/5/05 H5N1 (Influenza A virus A/Indonesia/5/05 (H5N1)); test: trimeric HA microarray, transfection set 5
[11] = molecular target: recombinant soluble homotrimeric HA of A/Netherlands/219/03 (H7N7) (Influenza A virus A/Netherlands/219/03 (H7N7)); test: microarray, BCC supernatant IgG, trimeric HA
[12] = molecular target: recombinant soluble homotrimeric HA of A/swine/Ontario/01911-2/99 (H4N6) (Influenza A virus A/swine/Ontario/01911-2/99 (H4N6)); test: microarray, BCC supernatant IgG, trimeric HA
[13] = molecular target: recombinant soluble homotrimeric HA of A/California/4/09 (H1N1) (Influenza A virus A/California/4/09 (H1N1)); test: microarray, BCC supernatant IgG, trimeric HA
[14] = molecular target: recombinant soluble homotrimeric HA of A/Vietnam/1203/04 (H5N1) (Influenza A virus A/Vietnam/1203/04 (H5N1)); test: microarray, BCC supernatant IgG, trimeric HA
[15] = molecular target: recombinant soluble homotrimeric HA of A/Wisconsin/67/05 (H3N2) (Influenza A virus A/Wisconsin/67/05 (H3N2)); test: microarray, BCC supernatant IgG, trimeric HA
[16] = molecular target: recombinant soluble homotrimeric HA of A/Anhui/1/05 (H5N1) (Influenza A virus A/Anhui/1/05 (H5N1)); test: microarray, BCC supernatant IgG, trimeric HA
[17] = molecular target: recombinant soluble homotrimeric HA of A/Solomon Islands/3/06 (H1N1) (Influenza A virus A/Solomon Islands/3/06 (H1N1)); test: microarray, BCC supernatant IgG, trimeric HA
[18] = molecular target: recombinant soluble homotrimeric HA of A/Hong Kong/2108/03 (H9N2) (Influenza A virus A/Hong Kong/2108/03 (H9N2)); test: microarray, BCC supernatant IgG, trimeric HA
[19] = molecular target: recombinant soluble homotrimeric HA of A/Japan/305/57 (H2N2) (Influenza A virus A/Japan/305/57 (H2N2)); test: microarray, BCC supernatant IgG, trimeric HA
[20] = molecular target: recombinant soluble homotrimeric HA of A/Indonesia/5/05 (H5N1) (Influenza A virus A/Indonesia/5/05 (H5N1)); test: microarray, BCC supernatant IgG, trimeric HA
[21] = molecular target: recombinant soluble homotrimeric HA of A/duck/Yangzhou/02/05 (H8N4) (Influenza A virus A/duck/Yangzhou/02/2005 (H8N4)); test: microarray, BCC supernatant IgG, trimeric HA
[22] = molecular target: recombinant soluble homotrimeric HA of A/Egypt/3300-NAMRU3/08 (H5N1) (Influenza A virus A/Egypt/3300-NAMRU3/08 (H5N1)); test: microarray, BCC supernatant IgG, trimeric HA
[23] = molecular target: recombinant homotrimeric HA, A/northern shoveler/California/HKWF115/07 (Influenza A virus A/northern shoveler/California/HKWF115/2007 (H6N1)); test: trimeric HA microarray, transfection set 3
[24] = molecular target: recombinant homotrimeric HA, A/Hong Kong/1073/99 H9N2 (Influenza A virus A/Hong Kong/1073/99 (H9N2)); test: trimeric HA microarray, transfection set 3
[25] = molecular target: T1, recombinant homotrimeric HA, …; test: trimeric HA microarray, transfection set 3
[26] = molecular target: T2, recombinant homotrimeric HA, …; test: trimeric HA microarray, transfection set 3
[27] = molecular target: recombinant homotrimeric HA, A/duck/Yangzhou/02/05 H8N4 (Influenza A virus A/duck/Yangzhou/02/2005 (H8N4)); test: trimeric HA microarray, transfection set 3
[28] = molecular target: recombinant homotrimeric HA, A/Egypt/3300-NAMRU3/08 H5N1 (Influenza A virus A/Egypt/3300-NAMRU3/08 (H5N1)); test: trimeric HA microarray, transfection set 3
[29] = molecular target: recombinant homotrimeric HA, A/Hong Kong/2108/03 H9N2 (Influenza A virus A/Hong Kong/2108/03 (H9N2)); test: trimeric HA microarray, transfection set 3
[30] = molecular target: recombinant homotrimeric HA, A/chicken/Vietnam/NCVD-016/08 H5N1 (Influenza A virus A/chicken/Vietnam/NCVD-016/08 (H5N1)); test: trimeric HA microarray, transfection set 3
[31] = molecular target: T3, recombinant homotrimeric HA, A/Solomon …; test: trimeric HA microarray, transfection set 3
[32] = molecular target: T4, recombinant homotrimeric HA, A/South …; test: trimeric HA microarray, transfection set 3
[33] = molecular target: T7, recombinant homotrimeric HA, …; test: trimeric HA microarray, transfection set 3
[34] = molecular target: recombinant homotrimeric HA, A/common magpie/Hong Kong/5052/07 H5N1 (Influenza A virus A/common magpie/Hong Kong/5052/07 (H5N1)); test: trimeric HA microarray, transfection set 3
[35] = molecular target: T5, recombinant homotrimeric HA, …; test: trimeric HA microarray, transfection set 3
[36] = molecular target: recombinant homotrimeric HA, A/swine/Ontario/01911-2/99 H4N6 (Influenza A virus A/swine/Ontario/01911-2/99 (H4N6)); test: trimeric HA microarray, transfection set 3
[37] = molecular target: T6, recombinant homotrimeric HA, …; test: trimeric HA microarray, transfection set 3

B1: TCN-551 (5243_D01) (antibody, V domains shown)
VH: EVQLVQSGSEVKKPGESLKISCKGSGYSFSNYWIGWVRHMPGKGLEWMGIIYPGDSDTRYSPSFQGQVTMSADKSSSTVYLQWSSLKASDTAIYYCARRGGHSFGYGSGGDTHSEFDSWGQGTLVTVSS
VL: QSVLTQSPSVSAAPGQKVTISCSGSDSNIGDYFVCWYQHLPGKPPQLLIYENNKRPSGIPDRFSGSKSGTSATLGITGIQTGDEADYYCATWDGSLSAWVFGGGTKLTVL
[1]
  Trimeric HA Binding RLU: 25200 RLU
[2]
  Trimeric HA Binding RLU: 41900 RLU
[3]
  Trimeric HA Binding RLU: 43500 RLU
[4]
  Trimeric HA Binding RLU: 4340 RLU
[5]
  Trimeric HA Binding RLU: 46100 RLU
[6]
  Trimeric HA Binding RLU: 936 RLU
[7]
  Trimeric HA Binding: RLU: 42300 RLU
[8]
  Trimeric HA Binding: RLU: 52500 RLU
[9]
  OD450: 0.1 OD450

B2: TCN-538 (3206_O17) (antibody, V domains shown)
VH: QITLKESGPTLVKPTQTLTLTCVFSGFSLSITGVRVGWIRQPPGKALEWLALISWDDEKHYSPSLQSRLTITKDTSKNQVVLTMTNLDPVDTATYYCARSTDRGHVLRYFGWMLPGDAFDVWGQGTMVTVSS
VL: DIVMTQSPDFLPVSLGERATINCKSSQRVLYSSNNKNYLAWYQLKPGQPPKLIIYWASTRESGVPDRFSGSGSGTEFTLTISSLQAEDVAVYYCQQYYSRPYTFGQGTKLEIK
[1]
  Trimeric HA Binding RLU: 6620 RLU
[3]
  Trimeric HA Binding RLU: 1960 RLU
[4]
  Trimeric HA Binding RLU: 8430 RLU
[10]
  Trimeric HA Binding RLU: 13700 RLU
[5]
  Trimeric HA Binding RLU: 16000 RLU
[6]
  Trimeric HA Binding RLU: 2070 RLU
[11]
  Trimeric HA Binding: RLU: 6530 RLU

B3: TCN-533 (5256_A17) (antibody, V domains shown)
VH: QVQLVQSGADVKKPGSSVTVSCKASGGSFSNYGINWVRQAPGQGLEWMGGIIPLINAPNYAPKFQGRVTITADMFSNIVSLQLTSLRTDDTAVYYCARRKMTTAIDYWGQGTLVTVSS
VL: QPVLSQPPSASASLGASVTLTCTLSSGFDNYQVAWYQQRPGKGPRFVMRVGNGGNVASKGDGIPDRFSVSGSGLNRYLTIKNIQEDDESDYYCGADHGSGNNFVSPYVFGGGTKLTVL
[12]
  Trimeric HA Binding: RLU: 1580 RLU
[13]
  Trimeric HA Binding: RLU: 29300 RLU
[7]
  Trimeric HA Binding: RLU: 47700 RLU
[14]
  Trimeric HA Binding: RLU: 5680 RLU
[15]
  Trimeric HA Binding: RLU: 13800 RLU
[16]
  Trimeric HA Binding: RLU: 8060 RLU
[17]
  Trimeric HA Binding: RLU: 39200 RLU
[18]
  Trimeric HA Binding: RLU: 172 RLU
[19]
  Trimeric HA Binding: RLU: 10800 RLU
[20]
  Trimeric HA Binding: RLU: 44100 RLU
[8]
  Trimeric HA Binding: RLU: 41400 RLU
[21]
  Trimeric HA Binding: RLU: 24700 RLU
[22]
  Trimeric HA Binding: RLU: 34300 RLU
[23]
  Trimeric HA Binding RLU: 7810 RLU
[24]
  Trimeric HA Binding RLU: 23800 RLU
[25]
  Trimeric HA Binding RLU: 18600 RLU
[26]
  Trimeric HA Binding RLU: 11700 RLU
[27]
  Trimeric HA Binding RLU: 711 RLU
[28]
  Trimeric HA Binding RLU: 18600 RLU
[29]
  Trimeric HA Binding RLU: 33 RLU
[30]
  Trimeric HA Binding RLU: 24600 RLU
[31]
  Trimeric HA Binding RLU: 15500 RLU
[32]
  Trimeric HA Binding RLU: 16400 RLU
[33]
  Trimeric HA Binding RLU: 28300 RLU
[34]
  Trimeric HA Binding RLU: 25200 RLU
[35]
  Trimeric HA Binding RLU: 6880 RLU
[36]
  Trimeric HA Binding RLU: 180 RLU
[37]
  Trimeric HA Binding RLU: 16100 RLU
